Measured values from publication PMC9331583.

Target: apolipoprotein E (human (endogenous in Huh7.5 and HMC3)) (UniProt P02649)
UniProt P02649, sequence (P02649 19-317): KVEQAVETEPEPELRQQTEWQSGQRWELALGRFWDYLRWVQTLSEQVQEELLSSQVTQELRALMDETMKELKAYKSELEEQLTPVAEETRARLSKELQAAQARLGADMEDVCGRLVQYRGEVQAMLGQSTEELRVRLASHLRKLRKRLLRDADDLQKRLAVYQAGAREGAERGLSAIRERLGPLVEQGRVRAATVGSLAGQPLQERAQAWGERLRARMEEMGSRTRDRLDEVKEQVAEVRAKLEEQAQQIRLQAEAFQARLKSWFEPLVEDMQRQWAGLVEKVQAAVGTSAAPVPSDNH

## Zika envelope glycoprotein (natural protein)
  decrease in infection of Huh7.5 cells (percent of cells positive for ZIKV envelope by FACS, relative to isotype Abs) by ZIKV particles pre-incubated with goat anti-ApoE Abs at 1.5 and 10 μg/mL: 60%
